US20230272051A1 (CENTIVAX, published 2023)

B1: COVID19_P01_H06 (scFv, V domains shown)
VH: QVQLVQSGAEVKKPGSSVKVSCKASGYTFTSYYMHWVRQAPGQGLEWMGLIDPSGGTTSYAQKFQGRVTITADESTSTAYMELSSLRSEDTAVYYCVWDTVMGGMDVWGQGTLVTVSS
VL: SYVLTQPPSVSVAPGKTAARITCGGNNIGSKSVHWYQQKPGQAPVLVIYKDGERPSGIPERFSGSNSRNTATLTISRVEAGDEADYYCQVWDSSSLYVFGGGTKLTVLA
B2: COVID19_P01_H07 (scFv, V domains shown)
VH: QVQLVQSGAEVKKPGSSVKVSCKASGYSFNNYDLHWVRQAPGQGLEWMGGIIPIFDTANYAQKFQGRVTITADESTSTAYMELSSLRSEDTAVYYCALETVMGGMVKWGQGTLVTVSS
VL: SSYVLTQPPSVSVAPGKTARITCGGNNIGSKSVHWYQQKPGQAPVLVIYYDSDRPSGIPERFSGSNSGNTATLTISRIEAGDEADYYCQVWDSSGDYVFGGGTKLTVLA
B3: COVID19_P14_F06 (scFv, V domains shown)
VH: QVQLVQSGAEVKKPGSSVKVSCKASGGTFSSFAIIWVRQAPGQGLEWMALINPSSGTTSYAQKFQGRVTITADESTSTAYMELSSLRSEDTAVYYCARETVMGGMDVWGQGTLVTVSS
VL: SSYVLTQPPSVSVAPGKTARITCGGNNIGSKSVHWYQQKPGQAPVLVIYYDSDRPSGIPERFSGSNSGNTATLTISRVEAGDEADYYCQVWDSSSHYVFGGGTKLTVLA
B4: COVID19_P02_A11 (scFv, V domains shown)
VH: QVQLVQSGAEVKKPGSSVKVSCKASGSTFSMFAINWVRQAPGQGLEWVGVINPRGSSTTYAQKFQGRVTITADESTSTAYMELSSLRSEDTAVYYCARDTVMGGMDVWGQGTLVTVSS
VL: SSYVLTQPPSVSVAPGKTARITCGGNNIGSKSVHWYQQKPGQAPVLVIYYDSDRPSGIPERFSGSNSGNTATLTISRVEAGDEADYYCQVWDRSSDYVFGGGTKLTVLA
B5: COVID19_P14_B05 (scFv, V domains shown)
VH: QVQLVQSGAEVKKPGSSVKVSCKASGGTFSSYTISWVRQAPGQGLEWMGIINPSGGSTSYAQKFQGRVTITADESTSTAYMELSSLRSEDTAVYYCARDTVMGGMGVWGQGTLVTVSS
VL: SSYVLTQPPSVSVAPGKTARITCGGNNIGSKSVHWYQQKPGQAPVLVIYYDSDRPSGIPERFSGSNSGNTATLTISRVEAGDEADYYCQVWDSSSFYVFGGGTKLTVLA
B6: COVID19_P02_A04 (scFv, V domains shown)
VH: QVQLVQSGAEVKKPGSSVKVSCKASGYAFTSYYMHWVRQAPGQGLEWMGVIDPSEGSTSNARKFQGRVTITADESTSTAYMELSSLRSEDTAVYYCVSDTVMGGMDVWGQGTLVTVSS
VL: SSYVLTQPPSVSVAPGKTARITCGGNNIGSKSVHWYQQKPGQAPVLVVYDDSDRPSGIPERFSGSNSGNTATLTISRVEAGDEADYYCQVWDSSSLYVFGGGTKLTVLA
B7: COVID19_P14_H10 (scFv, V domains shown)
VH: QVQLVQSGAEVKKPGSSVKVSCKASGGSFSRFPISWVRQAPGQGLEWMGGIIPIFGTANYAQRFQGRVTITADESTSTAYMELSSLRSEDTAVYYCALETVMGGLQVWGQGTLVTVSS
VL: SSYVLTQPPSVSVAPGKTARITCGGNNIGSKSVHWYQQKPGQAPVLVIYYDSDRPSGIPERFSGSNSGNTATLTISRVEAGDEADYYCQVWDSSSDYVFGGGTKLTVLA
B8: COVID19_P14_B07 (scFv, V domains shown)
VH: QVQLVQSGAEVKKPGSSVKVSCKASGYTFTSYGISWVRQAPGQGLEWMGWINPNSGGTNYAQKFQGRVTITADESTSTAYMELSSLRSEDTAVYYCAVETVMGGFTVWGQGTLVTVSS
VL: SSYVLTQPPSVSVAPGKTARITCGGNNIGSKSVHWYQQKPGQAPVLVIYYDSDRPSGIPERFSGSNSGNTATLTISRVEAGDEADYYCQVWDSSSDYVFGGGTKLTVLA
B9: COVID19_P14_F07 (scFv, V domains shown)
VH: QVQLVQSGAEVKKPGSSVKVSCKASGGTFSSYAISWMRQAPGQGLEWMGWINPNSGGTNYAQKFQGRVTITADESTSTAYMELSNLRSEDTAVYYCARDTYWGGMDVWGQGTLVTVSS
VL: SSYVLTQPPSVSVAPGKTARITCGGNNIGSKSVHWYQQKPGQAPVLVIYYDSDRPSGIPERFSGSNSGNTATLTISRVEAGDEADYYCQVWDSSSFYVFGGGTKLTVLA
B10: COVID19_P14_F05 (scFv, V domains shown)
VH: QVQLVQSGAEVKKPGSSVKVSCKASGNTFSMFAINWVRQAPGQGLEWVGVINPIGSTTTYAQKFQGRVTITADESTSTAYMELSSLRSEDTAVYYCARDTVMGGMDVWGQGTLVTVSS
VL: SSYVLTQPPSVSVAPGKTARITCGGNNIGSKSVHWYQQKPGQAPVLVIYYDSDRPSGIPERFSGSNSGNTATLTISRVEAGDEADYYCQVWVSSSDYVFGGGTKLTVLA
B11: COVID19_P13_B05 (scFv, V domains shown)
VH: QVQLVQSGAEVKKPGSSVKVSCKASGYTFTSYDINWVRQAPGQGLEWMGWINPNSGGTNYAQKFQGRVTITADESTSTAYMELSSLRSEDTAVYYCARDTFFGGMDVWGQGTLVTVSS
VL: SSYVLTQPPSVSVAPGKTARITCGGNNIGSKSVHWYQQKPGQAPVLVIYYDSDRPSGIPERFSGSNSGNTATLTISRVEAGDEADYYCQVWDSSSYYVFGGGTKLTVLA
B12: COVID19_P01_H10 (scFv, V domains shown)
VH: QVQLVQSGAEVKKPGSSVKVSCKASGGTFGNYPITWVRQAPGQGLEWMGIIYPGDSDARYRPSFQGRVTITADESTSTAYMELSSLRSEDTAVYYCARDFSMGGMDVWGQGTLVTVSS
VL: SSYVLTQPPSVSVAPGKTARITCGGNNIGSKSVHWYQQKPGQAPVLVIYYDSDRPSGIPERFSGSNSGNTATLTISRVEAGDEADYYCQVWDDSSDYVFGGGTKLTVLA
notes: also called COVID19_PO1_H10
B13: COVID19_P01_B08 (scFv, V domains shown)
VH: QVQLVQSGAEVKKPGSSVKVSCKASGGTFSNFAITWVRQAPGQGLEWMGVINPGGGSTTYAQTFQGRVTITADESTSTAYMELSSLRSEDTAVYYCARDTVMGGMDVWGQGTLVTVSS
VL: SSYVLTQPPSVSVAPGKTARITCGGNNIGSKSVHWYQQKPGQAPVLVIYYDSDRPSGIPERFSGSNSGNTATLTISRVEAGDEADYYCQVWDSSSDYVFGGGTKLTVLA
B14: COVID19_P01_E11 (scFv, V domains shown)
VH: QVQLVQSGAEVKKPGSSVKVSCKASGGTFSNYTITWVRQAPGQGLEWLGWISAYNGNTDYAQKLQGRVTITADESTSTAYMELSSLRSEDTAVYYCARDALMGGMDVWGQGTLVTVSS
VL: SSYVLTQPPSVSVAPGKTARITCGGNNIGSKSVHWYQQKPGQAPVLVIYYDSDRPSGIPERFSGSNSGNTATLTISRVEAGDEADYYCQVWDSRSDYVFGGGTKLTVLA
B15: COVID19_P14_E01 (scFv, V domains shown)
VH: QVQLVQSGAEVKKPGSSVKVSCKASGYTFTSYYMHWVRQAPGQGLEWMGGITPIFGTANYAQKFQGRVTITADESTSTAYMELSSLRSEDTAVYYCAVETVMGGMQMWGQGTLVTVSS
VL: SSYVLTQPPSVSVAPGKTARITCGGNNIGSKSVHWYQQKPGQAPVLVIYYDSDRPSGIPERFSGSNSGNTATLTISRVEAGDEADYYCQVWDSSSDYVFGGGTKLTVLA
B16: COVID19_P14_E07 (scFv, V domains shown)
VH: QVQLVQSGAEVKKPGSSVKVSCKASGYTFINYDINWVRQAPGQGLEWMGGITPIFGTANYAQKFQGRVTITADESTSTAYMELSSLRSEDTAVYYCARDTVMGGMDVWGQGTLVTVSS
VL: SSYVLTQPPSVSVAPGKTARITCGGNNIGSKSVHWYQQKPGQAPVLVIYYDSDRPSGIPERFSGSNSGNTATLTISRVEAGDEADYYCQVWDSHSDYVFGGGTKLTVLA
B17: COVID19_P14_G01 (scFv, V domains shown)
VH: QVQLVQSGAEVKKPGSSVKVSCKASGYNFINYYLHWVRQAPGQGLEWMGGITPIFGIANYAQKFQGRVTITADESTSTAYMELSSLRSEDTAVYYCARETVMGGMDVWGQGTLVTVSS
VL: SSYVLTQPPSVSVAPGKTARITCGGNKIGSKSVHWYQQKPGQAPVLVIYYDSDRPSGIPERFSGSNSGNTATLTISRVEAGDEADYYCQVWDSGSDYVFGGGTKLTVLA
B18: COVID19_P14_F08 (scFv, V domains shown)
VH: QVQLVQSGAEVKKPGSSVKVSCKASGYTFTAFYIHWVRQAPGQGLEWMGGIIPISGTANYAQKFQGRATITADESTSTAYMELSSLRSEDTAVYYCAREVVMGGMDVWGQGTLVTVSS
VL: SSYVLTQPPSVSVAPGKTARITCGGNNIGSKSVHWYQQKPGQAPVLVIYYDSDRPSGIPERFSGSNSGNTATLTISRVEAGDEADYYCQVWDSTSDYVFGGGTKLTVLA

Experiments:
[1] = target: T1, SARS-CoV-2 Receptor Binding Domain (RBD) protein (SARS-CoV-2, UniProt P0DTC2 319-541); assay: SPR (Carterra LSA); scFv captured by anti-V5, RBD as analyte
T1 construct: also called Sars-Cov-2 (COV2)

[2] = target: SARS-CoV-2 spike protein (on pseudovirus) (SARS-CoV-2, UniProt P0DTC2 14-1273); assay: cell-based or functional assay
[3] = target: T1, SARS-CoV-2 Receptor Binding Domain …; assay: SPR (Carterra LSA)

Binder | Kd [1] | koff [1] | kon [1] | IC50 [µg/mL] pseudotyped lenti neutralization [2] | Kd [3]
B1 | 1.31 nM | 0.000621 s⁻¹ | 474000 M⁻¹ s⁻¹ | 2.1 µg/mL | –
B2 | 0.81 nM | 0.000401 s⁻¹ | 496000 M⁻¹ s⁻¹ | 6.5 µg/mL | –
B3 | 48.3 nM | 0.0024 s⁻¹ | 49700 M⁻¹ s⁻¹ | – | < 50 nM
B4 | 45.1 nM | 0.0147 s⁻¹ | 326000 M⁻¹ s⁻¹ | – | < 50 nM
B5 | 48 nM | 0.0141 s⁻¹ | 294000 M⁻¹ s⁻¹ | – | < 50 nM
B6 | 41.4 nM | 0.0187 s⁻¹ | 451000 M⁻¹ s⁻¹ | – | < 50 nM
B7 | 28.3 nM | 0.01 s⁻¹ | 355000 M⁻¹ s⁻¹ | – | < 50 nM
B8 | 34.2 nM | 0.0131 s⁻¹ | 383000 M⁻¹ s⁻¹ | – | < 50 nM
B9 | 17 nM | 0.00245 s⁻¹ | 144000 M⁻¹ s⁻¹ | – | < 50 nM
B10 | 21.7 nM | 0.00152 s⁻¹ | 69900 M⁻¹ s⁻¹ | – | < 50 nM
B11 | 21.9 nM | 0.0037 s⁻¹ | 170000 M⁻¹ s⁻¹ | – | < 50 nM
B12 | 39.3 nM | 0.0148 s⁻¹ | 377000 M⁻¹ s⁻¹ | – | < 50 nM
B13 | 33.8 nM | 0.0149 s⁻¹ | 442000 M⁻¹ s⁻¹ | – | < 50 nM
B14 | 5.87 nM | 0.000586 s⁻¹ | 99900 M⁻¹ s⁻¹ | – | < 50 nM
B15 | 10.7 nM | 0.000819 s⁻¹ | 76800 M⁻¹ s⁻¹ | – | < 50 nM
B16 | 5.67 nM | 0.000778 s⁻¹ | 137000 M⁻¹ s⁻¹ | – | < 50 nM
B17 | 8.45 nM | 0.000842 s⁻¹ | 99700 M⁻¹ s⁻¹ | – | < 50 nM
B18 | 25 nM | 0.00283 s⁻¹ | 113000 M⁻¹ s⁻¹ | – | < 50 nM
